Experimental data as given in PMC5141509, “Identification of protein structural elements responsible for the diversity of sequence preferences among Mini-III RNases”.

How the values were obtained:
[1] = system: Ct(FpHL)MiniIII (chimera); test: filter binding; conditions: Enzyme-specific cleavage buffer (Table S1, mostly not in material) with MgCl2 replaced by 1 mM CaCl2; 1.5 nM 33P-dsRNA, 50 ul, 1 h at room temperature …
FpMiniIII = test: filter binding; conditions: Enzyme-specific cleavage buffer (Table S1, mostly not in material) with MgCl2 replaced by 1 mM CaCl2; 1.5 nM 33P-dsRNA, 50 ul, 1 h at room temperature …
Ct(FpH)MiniIII (chimera) = test: filter binding; conditions: Enzyme-specific cleavage buffer (Table S1, mostly not in material) with MgCl2 replaced by 1 mM CaCl2; 1.5 nM 33P-dsRNA, 50 ul, 1 h at room temperature …
CtMiniIII = test: filter binding; conditions: Enzyme-specific cleavage buffer (Table S1, mostly not in material) with MgCl2 replaced by 1 mM CaCl2; 1.5 nM 33P-dsRNA, 50 ul, 1 h at room temperature …
SeMiniIII = test: filter binding; conditions: Enzyme-specific cleavage buffer (Table S1, mostly not in material) with MgCl2 replaced by 1 mM CaCl2; 1.5 nM 33P-dsRNA, 50 ul, 1 h at room temperature …
Ct(FpL)MiniIII (chimera) = test: filter binding; conditions: Enzyme-specific cleavage buffer (Table S1, mostly not in material) with MgCl2 replaced by 1 mM CaCl2; 1.5 nM 33P-dsRNA, 50 ul, 1 h at room temperature …
BsMiniIII = molecular target: T1, BsMiniIII (Bacillus subtilis, UniProt O31418 1-143); test: filter binding; 1 mM Ca2+ (no Mg2+); Enzyme-specific cleavage buffer (Table S1, mostly not in material) with MgCl2 replaced by 1 mM CaCl2; 1.5 nM 33P-dsRNA, 50 ul, 1 h at room temperature; nitrocellulose filter; one-site fit; conditions: protein: recombinant; tags: N-terminal His6 (pET28a, NdeI/XhoI); chain copies: 2; label: 33P 5' end label; blunt
T1 sequence: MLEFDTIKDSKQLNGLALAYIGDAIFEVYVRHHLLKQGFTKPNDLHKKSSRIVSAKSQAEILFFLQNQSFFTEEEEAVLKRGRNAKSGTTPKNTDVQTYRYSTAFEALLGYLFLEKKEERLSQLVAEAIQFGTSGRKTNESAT

In the case of “CCUGUCCCCCGCCGAAGUCGCUGCAAUU / AAUUGCAGCGACUUCGGCGGGGGACAGG [NEG]”, the Kd [1] is reported as 2.25 µM, the Kd (FpMiniIII) is reported as 19.9 µM and the Kd (Ct(FpH)MiniIII (chimera)) is reported as 1.94 µM. For the same molecule, the Kd (CtMiniIII) was 1.34 µM, the Kd (SeMiniIII) was 0.19 µM and the Kd (Ct(FpL)MiniIII (chimera)) was 1.8 µM.

Work on “GCUGGGAGGGAAACCUCUCUCUCUGGCC / GGCCAGAGAGAGAGGUUUCCCUCCCAGC [POS-ACCU]” yielded a Kd [1] of 2.17 µM, a Kd (FpMiniIII) greater than 100 µM and a Kd (Ct(FpH)MiniIII (chimera)) of 2.62 µM. For the same molecule, the Kd (CtMiniIII) was 1.14 µM, the Kd (SeMiniIII) was 0.16 µM and the Kd (Ct(FpL)MiniIII (chimera)) was 1.33 µM.

B1: NEG (dsRNA)
RNA 1: CCUGUCCCCCGCCGAAGUCGCUGCAAUU
RNA 2: AAUUGCAGCGACUUCGGCGGGGGACAGG
B1 showed a Kd (BsMiniIII) of 0.07 ± 0.01 µM.

B2: POS-ACCU (dsRNA)
RNA 1: GCUGGGAGGGAAACCUCUCUCUCUGGCC
RNA 2: GGCCAGAGAGAGAGGUUUCCCUCCCAGC
Work on B2 yielded a Kd (BsMiniIII) of 0.14 ± 0.02 µM.
